Measured values from patent US20250388666A1 (BRIGHAM AND WOMEN S HOSPITAL, published 2025).
Where a chain is given by its changes, count along the chain named. Numbers in names are those of the source.

What was measured:
[1] = biological target: T1, CEACAM1 (Sino Biological) (human, UniProt P13688 35-428, limits assumed); assay: SPR single-cycle
T1 construct: may be the same as CEACAM1-HIS; also called hCEACAM1; biotinylated soluble CEACAM1
T1 sequence: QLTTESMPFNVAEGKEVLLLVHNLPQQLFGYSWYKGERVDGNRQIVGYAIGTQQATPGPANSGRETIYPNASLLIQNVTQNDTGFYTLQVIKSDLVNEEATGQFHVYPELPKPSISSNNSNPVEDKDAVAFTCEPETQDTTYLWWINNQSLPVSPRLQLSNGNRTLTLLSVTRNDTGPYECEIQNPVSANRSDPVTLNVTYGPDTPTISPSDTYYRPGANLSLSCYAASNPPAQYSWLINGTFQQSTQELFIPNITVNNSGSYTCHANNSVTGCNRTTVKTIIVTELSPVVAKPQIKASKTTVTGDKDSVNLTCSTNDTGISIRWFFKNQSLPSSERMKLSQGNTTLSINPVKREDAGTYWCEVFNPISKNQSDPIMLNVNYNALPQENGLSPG
Outline: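 Humanized affinity-matured IgGs from crude supernatants captured on Protein A to ~100 RU, with CEACAM1 analyte injected at 25–100 nM (three-point, two-fold) in HBS-P+ without regeneration. 200 s association per injection, 300 s single dissociation; reference-channel and blank subtracted.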

[2] = biological target: T2, CEACAM1-HIS (Sino Biologics Inc.) (Homo sapiens (Human), UniProt P13688 35-428); assay: SPR single-cycle, IgG on Protein A
T2 construct: bought; not shown: His tag
T2 sequence: T1 sequence
Experimental: As an alternative approach to assess the binding of the antibody combinations and the control antibodies to CEACAM1, a kinetic analysis was performed on a Biacore T200 running Biacore T200 Evaluation Software V2.0.1. All experiments were run at 25° C. with HBS-P+ running buffer (pH 7.4).
In order to assess the binding of all Composite Human Antibody™ variants, single cycle kinetic analysis was performed on the supernatants of all the transiently transfected HEK EBNA cells. Purified chimeric antibody and purified chimeric antibody spiked into HEK EBNA media were used as positive controls. Supernatants were diluted in HBS-P+ to a concentration of 1 μg/mL (as determined by an IgG quantitation ELISA). At the start of each cycle, antibodies were loaded onto Fc2, Fc3 and Fc4 of a Protein A chip and captured at a flow rate of 8 μL/min to give an RU of ˜100. The surface was then allowed to stabilize. Single cycle kinetic data was obtained at a flow rate of […] to minimize any potential mass transfer effects. Multiple repeats of the chimeric antibody were performed to check the stability of the surface and analyte over the kinetic cycles. The signal from the reference channel Fc1 (no antibody) was subtracted from that of Fc2, Fc3 and Fc4 to correct for differences in non-specific binding to a reference surface. A 5 point 2-fold dilution range from 3.125 to 50 nM CEACAM1 without regeneration between each concentration was used. The association phase for the 5 injections of increasing concentrations of CEACAM1 was monitored for 150 seconds and a single dissociation phase was measured for 150 seconds following the last injection of CEACAM1. Regeneration of the Protein A was conducted using 2 injections of 10 mM glycine-HCL pH 1.5 followed by a stabilization period of 500 seconds.
In the raw sensorgrams for the single cycle kinetics, the signal from each antibody blank run (no CEACAM1) was subtracted to correct for differences in surface stability.

B1: He14/L16 (antibody, IgG4, V domains shown)
VH: EVQLLESGGGLVQPGGSLRLSCAASGFSFSDYYLYWVRQAPGKGLEWVATISVGGGQTSYADSVKGRFTISRDNSKNTLYLQMNSLRAEDTAMYYCTRGLYYGPSWVAYWGQGTLVTVSS
VL: DIVMTQSPDSLAVSLGERATINCKSSQSLLNSANQKNYLAWYQQKPGQPPKLLIYFASTRESGVPDRFSGSGSGTDFTLTISSLQAEDVAVYYCQSHYPYPFTFGGGTKVEIK
notes: IgG4 S241P, kappa
[1]
  Kd: 93 nM
  fold better than Parent (KD): 1.7 fold

B2: He14/L17 (antibody, IgG4, V domains shown)
VH: B1 VH
VL: B1 VL with F102Y
notes: IgG4 S241P, kappa
[1]
  Kd: 97 nM
  fold better than Parent (KD): 1.64 fold

B3: He14/L18 (antibody, IgG4, V domains shown)
VH: B1 VH
VL: B1 VL with Y98F
notes: IgG4 S241P, kappa
[1]
  Kd: 91 nM
  fold better than Parent (KD): 1.75 fold

B4: He14/L19 (antibody, IgG4, V domains shown)
VH: B1 VH
VL: B1 VL with Y98I, P99Y, Y100P, P101N
notes: IgG4 S241P, kappa
[1]
  Kd: 87 nM
  fold better than Parent (KD): 1.83 fold

B5: He14/L20 (antibody, IgG4, V domains shown)
VH: B1 VH
VL: B1 VL with Y98F, F102L
notes: IgG4 S241P, kappa
[1]
  Kd: 114 nM
  fold better than Parent (KD): 1.39 fold

B6: He14/Parent VL (antibody, IgG4, V domains shown)
VH: B1 VH
VL: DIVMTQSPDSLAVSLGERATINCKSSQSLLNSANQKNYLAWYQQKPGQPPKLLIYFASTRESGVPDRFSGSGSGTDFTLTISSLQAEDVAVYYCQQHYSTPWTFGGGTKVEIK
notes: IgG4 S241P, kappa
[1]
  Kd: 88 nM
  fold better than Parent (KD): 1.8 fold

B7: He17/L2 (antibody, IgG4, V domains shown)
VH: B1 VH with G99A, L100R, Y101T, S105A, V107F
VL: B1 VL with Y100F, F102Y
notes: IgG4 S241P, kappa
[1]
  Kd: 82 nM
  fold better than Parent (KD): 1.95 fold

B8: He17/L3 (antibody, IgG4, V domains shown)
VH: B1 VH with G99A, L100R, Y101T, S105A, V107F
VL: B1 VL with Y98F, Y100F
notes: IgG4 S241P, kappa
[1]
  Kd: 95 nM
  fold better than Parent (KD): 1.68 fold

B9: He17/L4 #1 (antibody, IgG4, V domains shown)
VH: B1 VH with G99A, L100R, Y101T, S105A, V107F
VL: B1 VL with Y98F, P101Y, F102Y
notes: IgG4 S241P, kappa
[1]
  Kd: 165 nM
  fold better than Parent (KD): 0.96 fold

B10: He17/L4#2 (antibody, IgG4, V domains shown)
VH: B1 VH with G99A, L100R, Y101T, S105A, V107F
VL: B1 VL with F102Y
notes: IgG4 S241P, kappa
[1]
  Kd: 258 nM
  fold better than Parent (KD): 2.14 fold

B11: He17/L5 (antibody, IgG4, V domains shown)
VH: B1 VH with G99A, L100R, Y101T, S105A, V107F
VL: B1 VL with Y100F, P101A
notes: IgG4 S241P, kappa
[1]
  Kd: 81 nM
  fold better than Parent (KD): 1.97 fold

B12: He17/L6 (antibody, IgG4, V domains shown)
VH: B1 VH with G99A, L100R, Y101T, S105A, V107F
VL: B1 VL with Y100F, P101S
notes: IgG4 S241P, kappa
[1]
  Kd: 79 nM
  fold better than Parent (KD): 2.01 fold

B13: He17/L17 (antibody, IgG4, V domains shown)
VH: B1 VH with G99A, L100R, Y101T, S105A, V107F
VL: B1 VL with F102Y
notes: IgG4 S241P, kappa
[1]
  Kd: 104 nM
  fold better than Parent (KD): 1.53 fold

B14: He17/L18 (antibody, IgG4, V domains shown)
VH: B1 VH with G99A, L100R, Y101T, S105A, V107F
VL: B1 VL with Y98F
notes: IgG4 S241P, kappa
[1]
  Kd: 98 nM
  fold better than Parent (KD): 1.62 fold

B15: He17/L19 (antibody, IgG4, V domains shown)
VH: B1 VH with G99A, L100R, Y101T, S105A, V107F
VL: B1 VL with Y98I, P99Y, Y100P, P101N
notes: IgG4 S241P, kappa
[1]
  Kd: 135 nM
  fold better than Parent (KD): 1.18 fold

B16: He17/L20 (antibody, IgG4, V domains shown)
VH: B1 VH with G99A, L100R, Y101T, S105A, V107F
VL: B1 VL with Y98F, F102L
notes: IgG4 S241P, kappa
[1]
  Kd: 99 nM
  fold better than Parent (KD): 1.61 fold

B17: He17/Parent VL (antibody, IgG4, V domains shown)
VH: B1 VH with G99A, L100R, Y101T, S105A, V107F
VL: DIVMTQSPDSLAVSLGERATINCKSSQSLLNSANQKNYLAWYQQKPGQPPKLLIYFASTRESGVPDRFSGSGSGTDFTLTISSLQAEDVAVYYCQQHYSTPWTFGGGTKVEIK
notes: IgG4 S241P, kappa
[1]
  Kd: 128 nM
  fold better than Parent (KD): 1.24 fold

B18: Parent VH/L2 (antibody, IgG4, V domains shown)
VH: B1 VH with S105A, V107F
VL: B1 VL with Y100F, F102Y
notes: IgG4 S241P, kappa
[1]
  Kd: 70 nM
  fold better than Parent (KD): 2.26 fold

B19: Parent VH/L3 (antibody, IgG4, V domains shown)
VH: B1 VH with S105A, V107F
VL: B1 VL with Y98F, Y100F
notes: IgG4 S241P, kappa
[1]
  Kd: 63 nM
  fold better than Parent (KD): 2.53 fold

B20: Parent VH/L4 #1 (antibody, IgG4, V domains shown)
VH: B1 VH with S105A, V107F
VL: B1 VL with Y98F, P101Y, F102Y
notes: IgG4 S241P, kappa
[1]
  Kd: 103 nM
  fold better than Parent (KD): 1.54 fold

B21: Parent VH/L5 (antibody, IgG4, V domains shown)
VH: B1 VH with S105A, V107F
VL: B1 VL with Y100F, P101A
notes: IgG4 S241P, kappa
[1]
  Kd: 66 nM
  fold better than Parent (KD): 2.42 fold

B22: Parent VH/L6 (antibody, IgG4, V domains shown)
VH: B1 VH with S105A, V107F
VL: B1 VL with Y100F, P101S
notes: IgG4 S241P, kappa
[1]
  Kd: 57 nM
  fold better than Parent (KD): 2.81 fold

B23: Parent VH/L17 (antibody, IgG4, V domains shown)
VH: B1 VH with S105A, V107F
VL: B1 VL with F102Y
notes: IgG4 S241P, kappa
[1]
  Kd: 76 nM
  fold better than Parent (KD): 2.08 fold

B24: Parent VH/L19 (antibody, IgG4, V domains shown)
VH: B1 VH with S105A, V107F
VL: B1 VL with Y98I, P99Y, Y100P, P101N
notes: IgG4 S241P, kappa
[1]
  Kd: 77 nM
  fold better than Parent (KD): 2.08 fold

B25: Parent VH/L20 (antibody, IgG4, V domains shown)
VH: B1 VH with S105A, V107F
VL: B1 VL with Y98F, F102L
notes: IgG4 S241P, kappa
[1]
  Kd: 87 nM
  fold better than Parent (KD): 1.83 fold

B26: VH3/Vκ1 (antibody, V domains shown)
VH: EVQLLESGGGLVQPGGSLRLSCAASGFIFSSHGMSWVRQAPGKGLEWVATISSGGTYTYYADSVKGRFTISRDNSKNTLYLQMNSLRAEDTAMYYCARHDFDYDAAWFAYWGQGTLVTVSS
VL: QIVLTQSPALLSLSPGERATMSCSANSSVSYMYWYRQKPGQAPKPWIYLTSNLASGVPARFSGSGSGTDYTLTISSLEAEDFATYYCQQWSSNPPTFGQGTKLEIK
[2]
  Kd: 1500 nM
  relative KD to chimeric parental antibody: 34.7 ratio

B27: VH3/Vκ2 (antibody, V domains shown)
VH: B26 VH
VL: B26 VL with Q1E, L10T, M21L, S24R, R36Q, K44R, L53R, S55T, A79P
[2]
  Kd: 265 nM
  relative KD to chimeric parental antibody: 6.1 ratio

B28: VH4/Vκ1 (antibody, V domains shown)
VH: B26 VH with A49S, M93V
VL: B26 VL
[2]
  Kd: 243 nM
  relative KD to chimeric parental antibody: 5.6 ratio

B29: VH4/Vκ2 (antibody, V domains shown)
VH: B26 VH with A49S, M93V
VL: B26 VL with Q1E, L10T, M21L, S24R, R36Q, K44R, L53R, S55T, A79P
[2]
  Kd: 3950 nM
  relative KD to chimeric parental antibody: 91.4 ratio
